Source: patent US20090092614A1

What was measured:
[1] = target: human IGF-1R(1-903)-Fc (human) (UniProt P08069); experiment: competition ELISA: biotinylated hIGF-1R-Fc on streptavidin plate, antibody titrated in 320 nM human IGF-1 His (blocked ligand), anti-His-HRP detection
[2] = target: human IGF-1R(1-903)-Fc (human) (UniProt P08069); experiment: blocking ELISA, competitor 320 nM IGF-1
[3] = target: human IGF-1R(1-903)-Fc (human) (UniProt P08069); experiment: blocking ELISA, competitor 640 nM IGF-2

human IGF-1R(1-903)-Fc (human), sequence (P08069 31-933): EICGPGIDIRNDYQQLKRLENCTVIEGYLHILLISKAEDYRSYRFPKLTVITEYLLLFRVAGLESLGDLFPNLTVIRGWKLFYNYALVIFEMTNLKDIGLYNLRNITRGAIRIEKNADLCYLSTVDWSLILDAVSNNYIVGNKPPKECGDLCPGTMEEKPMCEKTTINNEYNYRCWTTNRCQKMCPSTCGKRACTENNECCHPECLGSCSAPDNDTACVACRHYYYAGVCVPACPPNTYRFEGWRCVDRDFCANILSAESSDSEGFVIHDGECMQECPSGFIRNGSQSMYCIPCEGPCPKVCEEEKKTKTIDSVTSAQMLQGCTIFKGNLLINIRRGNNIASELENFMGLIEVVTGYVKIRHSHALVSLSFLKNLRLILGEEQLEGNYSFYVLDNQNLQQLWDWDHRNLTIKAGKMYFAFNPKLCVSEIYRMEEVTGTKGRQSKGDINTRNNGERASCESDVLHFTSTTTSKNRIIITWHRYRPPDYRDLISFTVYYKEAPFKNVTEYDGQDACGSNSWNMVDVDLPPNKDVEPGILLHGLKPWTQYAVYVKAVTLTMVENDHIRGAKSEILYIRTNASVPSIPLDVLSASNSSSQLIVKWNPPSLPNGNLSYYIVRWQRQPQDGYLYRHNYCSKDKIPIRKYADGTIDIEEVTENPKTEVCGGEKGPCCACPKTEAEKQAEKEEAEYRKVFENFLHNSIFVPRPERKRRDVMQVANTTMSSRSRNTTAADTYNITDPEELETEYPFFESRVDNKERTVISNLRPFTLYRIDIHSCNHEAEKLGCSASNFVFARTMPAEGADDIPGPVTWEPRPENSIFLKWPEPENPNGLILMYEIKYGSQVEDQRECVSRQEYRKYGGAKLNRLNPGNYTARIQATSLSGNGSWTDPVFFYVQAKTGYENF

- IC50 (read off the curve) [1]: 4 nM
- % IGF-1 inhibition upon antibody saturation [2]: 23%
- % IGF-2 inhibition upon antibody saturation [3]: 60%
Substance: αIR3 (antibody)
